Results: PMC9907207 (Nature Communications, 2023)

B1: GAR05 Fab (Fab, V domains shown)
VH: EVQLVQSGGDLVQPGGSLRLSCAVSGFTVSRNYMTWVRQAPGRGLEWVSLIYPGGSAFYADSVKGRFTISRDNSKNTLYLQMNSLRVEDTAVYYCARDPVSTGHYHDSDYWGQGTLVTVSS
VL: DIQMTQSPSALSASVGDRVTITCQASQDINKFLNWYQQKPGKAPKLLIYDASNLETGVPSRFSGGGSGTDFTFTISSLQPEDIATYYCHQYDNLPRTFGQGTKVELK
notes: also called GAR05 Fab fragment; source: ExpiCHO, purified (Talon resin, S200 SEC)
B2: GAR03 Fab (Fab, V domains shown)
VH: QVQLVQSGAEVKKPGASVKVSCKASGYTFSSYDINWVRQAPGQGLEWMGWMSPNSGNTGYAQKFQGRVTMTRSTSMSTAYMELSSLRSEDTAVYFCARMSSSLTNYLDYWGQGTLVTVSS
VL: SYVLTQPPSVAVAPGQTARIRCGENDIGSKNVHWYQQKSGQAPVLVVYDDSDRPSGIPERFSGSNSGNTATLTISRVEAGDEADYYCQVWDSTGDHPDVVFGGGTKLTVL
notes: also called GAR03 antibody Fab; source: ExpiCHO, purified (Talon resin, S200 SEC)

Target: T1, D614G VFLIP spike trimer (SARS-CoV-2, ancestral with D614G, VFLIP …, stabilised)
T1 construct: also called stabilized D614G ancestral trimeric spike ("VFLIP"); trimeric spike
Assay: cryo-EM structure
Conditions: both partners purified

Binder | stoichiometry N
B1 | 3 Fabs per spike trimer
B2 | 1 Fab per spike trimer
